Experimental data as given in the domain aggregation screens of Martell et al. (2025).

Assay: soluble fraction after stress (log2 fold change); higher = more stays soluble; pooled small domains, quantitative proteomics
Details: stress: pH 4
Procedure, shortened: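 Custom libraries of small protein domains were pooled and exposed to pH 4. High-throughput quantitative proteomics then measured the log2 fold change in the amount of each domain still soluble, with higher values meaning more stayed soluble. This soluble-fraction fold change stands for aggregation propensity.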

| Sequence | soluble fraction (log2) |
| --- | --- |
| HMDKRYYYRILGLVGEPTRDQIEAAYETRIAKLRSSDYGDDPLYARRKISEVTMAYKVLTGS | 0.139 |
| HMDKSFLQSLHLIALGIVKNQMDPWELVNGWVEYYLKNKDKYIDHPNLKAVAVLKMKGLFIDHFRKS | -2.21 |
| HMDKSHYEELGVSRTATHAEIRRAYRHLMRTLHPDSNDGRVDAVRITKVNEAWNVLSQSSSRNAYDKSQV | -0.0249 |
| HMDKTTIKNEQKKQILIFAEMNLFFKAKDVAELLGLQASRARYLLQELVKDGKIQGIGNNKGRKYQLI | -0.591 |
| HMDKVEQLMQNPVIQEKMSEGDRELLRNASLVVLGRLEDDGSIIQRFVELFGEEAYERLKSELM | -0.865 |
| HMDLDIGSVLQASRGEKKISLRQLAERTGLTASMLSQIERNLVNPSINTLKVIAAALEIPMYKFFMG | -0.583 |
| HMDLEMLEVEDTIKDLLSQHQKINAIKYYRNYMSEQLNVDMGLRQAKDTIDAIGRGATVDLSVGY | -0.783 |
| HMDLIEVLAQDTIKKIYNTYVAYKNKVDVFYVAFSGGKDSIVTLDLVQRTLPHNEFKVLFGDTGM | -0.48 |
| HMDLIFQKGDLVFSTEHNQRGIFYEYLEQGQAKISIEKQFFVVAARRLQLLTKREVLYPAGYDLDQLFV | -1.05 |
| HMDLKENQHILQISNKGVQMGNVLKDLIIQTLNITNGNQIKAAKLLAISRAKLRYRIEQLGINISGKNI | 0.0187 |
| HMDLKHNQITMRELLRNKQAYLLLYKEFPMFMTPAILQNIRPLTLQQIIQMVRPYISRPKLNMLLEQLENI | 0.22 |
| HMDLMQRVIIVRPVMQGDYLTRAHLGLQTLSRNGGGGFTDIDDLVGRRAKKSLRAGLVVHNRHL | 0.124 |
| HMDLPAEFSKPELETLFKRGKQSGELSLTEVRDALEAAQLPNKKTQTKVLKVLSDNAIHVLMDG | 0.0785 |
| HMDLPDFTSRERDILARVVQGDSNERIAASLGVSVSTVKTHIGNILRKTGQTNRVRLIVWATRHL | -0.37 |
| HMDLPDYYFRVRENGAVVFRVGTENRQRRIEMVEIATVNVKNGNIKPHGEVDLTKADRLAIGEWLAARQAQ | -0.27 |
| HMDLPRQSQYQALVVSYARRAGIDEAEEDLLAAFEVWRMRHNHDLAGGRTARDFILAYLPQYQRHKE | -0.59 |
| HMDLQNIQNQLNTEFAKSDTRIIFWFDDKGEYEDEVSELQLGDVKLHILDGLNWFYSKYLLNEA | -0.467 |
| HMDLRAPKPIKEMGEEYIKLYQYLRKGESENIVMSKMNISLDDYDYMRSEIEDKLSLYNMLDLLRKP | 0.0296 |
| HMDLRVKRTNKMIMEAFIHLVEQKGYDNITVQEIADEAMINRATFYAHFKDKQDLYDHIFKQAI | -1.33 |
| HMDLSPEQAELAAIRGELGIKIDDYALALNIPRDRLTSYLYGRANVPAEVLISARELRYASSA | -0.128 |
| HMDMQNIQKGLSAIEPGRTFSREEYYAAIQNGSEMLLKEDALAYSLRKSLSDGDIVRVSWNQYAIP | -0.909 |
| HMDMTPEEFLAWARHKPFGDPFPKTQTVTFLVPLLGVSRTNIFTWISGKVNPSKTSLLLMEALKRENR | -0.444 |
| HMDNEIEQIVEDLNLTLSSLKYTKNQIESILPLIIKEIDDFKKKEKNISFENLLKLAMNHLDND | -1.16 |
| HMDNEIRIPLPSLQRDGFSIGTREDDGSQLVRIMSAGSFGGMIRSFRLPEGMRIEGAKWEGEIVSIRL | -0.0291 |
| HMDNEVTIAVQVNGKLRDKLIVALDTPNEKIEQLALALPKVIQNTSGLTVRKVIVIPNRLVNIVA | 0.123 |
| HMDNIKRGEMFYISRGGASYSGSEQHSDRPAVVVSNDKNNENSNVVEVVYMTTQPKTDLPTHVTVR | -0.0773 |

| Sequence | soluble fraction (log2) |
| --- | --- |
| HMDNLKELDEILETYGKKKGYLITILQKAQDAYGYISIDIMNRISEFTGIKVAKIYGVATFYAQFRL | -0.651 |
| HMDNPLSQQEKRILQLISLGKTNQEIADILYLSNGTVRNYISSILNKLSANNRVEAARIAEEHGW | -0.929 |
| HMDNPNVMAQVKSLLASKGLSEQEVKERLKAKGLNIDAMSDAEIAQNRSVIEQTIAELEAEKKKAG | 0.287 |
| HMDNPYEVFIPNSYIGQRLDQTLASLFPQFSRSRLQNWLASGNLLVNGKIVKPKTKILGGEQINILDPYN | 0.17 |
| HMDNTFEEVKEKLLDLLKERPLTPAEVSKRMEEDKNILAQVIQYLLEEEIIKTEDGMLSKVIG | -0.0649 |
| HMDNWYIAFNSFLSQNKLTAKNVSELTGLSKPTIDSYKQGKRKPTDENMQIIKDKLGFNISEILYN | -0.576 |
| HMDPDDEILINIMTKLLTEKQIIIKNKEIFNFLLKRINRTYEEVYNLINKMDKLSLEKKKQLTIPSIKEL | -1.52 |
| HMDPEEETLKNMQRMLQDSGPLKKTEFSLLAKSLGIAEKKARKLIDRGRGRFWTVESGEQKNTQLVTPIQ | -0.261 |
| HMDPERVVGQTGIVHLRIPARQHNTGKVMIEVQGSLREFDAVSEAEEIPTGTPILIVGRTEEGVFIAQPF | -0.823 |
| HMDPGPVLISAQVLDDLEAIRRDGSSNMLDWPAVARLAEVMGMDRTAAWVRTHHREYSAGIFRGFASD | -0.744 |
| HMDPHEEELLRQLIRGDIAGYEVLFHKYYPTFFAFIKGMTKETVVAEDITQNIFMKVWLNRERLDAA | -0.535 |
| HMDPIATLTPREREVLSLMAEGRSNGAIAAALVVGDGAVEKHVSNIFQKLELTPAEGDHRRVLAVLRWLE | -0.864 |
| HMDPLADLFSRIRNAQMRNKKVVTSPASKLRAGILEVLAKEGYIRGYAMTQHASGKNELDIELN | -0.0916 |
| HMDPNAITSAQVTKLQVLANEKGFAERQARLTMWAEVIGRNVGTANELTKAEAHKLIEHMDALPV | -0.162 |
| HMDPNFKYIIRIANSDVSGEQKLAYALTSIRGIGERTSNAIIQKLGLDSTQLAGKLTDKNVEDIESA | -0.0403 |
| HMDPPQEVWDLTRSYLDSMNRPVHGHKSPQETYLRQVKSHRLPATALWDYFMAQRFHAVHATSESAA | -0.364 |
| HMDPPYKDKNLHELLLKINNLNILKKDSVIILHRHKKQKEIFPSNFKIIEQKQYGISKIIFLTVL | 0.217 |
| HMDPRTSSLTPQERKVLELVGGGLTNRQIAAEMFLAEKTVKNYVSSLLAKLGFERRTQAAVFIASPAF | -0.0756 |
| HMDPSKLVEVQEPVSMKALSEGLGIKVTELIATFAFKLKIGGKNINSMLSNDEVELVALDLERNIKVV | -0.0335 |
| HMDPTEPLFVGVVTAEPYLNIREYPTTQSKDLGDLFPGMHVNVYEIVPNWYRIDDGWVASAWVKRDWGGG | -0.314 |
| HMDPTIRRGELIDAASRLFLSKGYAATSVRDILDEVGNRTASPSVFYYYFKSKEEIYQAVLRRHSE | -0.485 |
| HMDPTVSGQTGSVVREIRPGVPGEVELSVPLYGIRRWQAMADGILAEGTRVTVIQAEGVRLSVRPV | -0.251 |
| HMDPTVTFIVQVNGRVRDKITLSSDISENEAKNVALESPKITPHISGKSLSRVIFVPGKLINLVV | 0.162 |
| HMDPVATLTPREREVLELMAEGRTNAGIAEAMVVTEGAVEKHIQRIFAKLGLHADGGVHRRVAAVLALLG | -0.872 |
| HMDQDIILHKVQPGDTLSKILLHYHSHQDRNKLQGLIAESMTANPFIKNPDLIYPGQLIQVPVPA | 0.124 |
| HMDQFMLQSAWLRAVQHVMKHTDDVGTQFAEEARRMHYGEADERPIRGQATSDEARALHDEGIEVMALPI | -0.192 |

| Sequence | soluble fraction (log2) |
| --- | --- |
| HMDQILIHLKEGIDVTDVQPMLKALDLNVRMFNRDKNIIVISVLNRELDAIPQTIAALRPWEELFDSA | -0.184 |
| HMDQNVSVPKLAGLQVEEANAILKSKGLHIEIIDSIYQKDAVPGAIIEQVPEENSKVKKGRAIYVSVYAK | 0.0139 |
| HMDQVYYDLKSLIELLPADQMEVLKMRYFEELSFKKIAQKIDVSINTALGRMRYALINLRALSKKHHID | -1.02 |
| HMDRDMGSMTDFENVRDAYLTGKVWNVGDLIEANGITGIIIRKGTNYVSYNDGDGKVHKAWLHDITL | -0.98 |
| HMDREILWTNYVAARKQEFIASSIDTIGAEYLDNRRFWDTQFEREWTIIAERLASGFGLTDDILSIVGSDF | -2.71 |
| HMDRETEEYELIRAKLEWLYQKQTGTIRNQTAKILHHLEIAKEEGNYYLYLKIKEEAKQWLVQASMYLD | -0.725 |
| HMDRGDVTREALIKAAIEIFGRDGFHAASTRAIAERAGANQALIGYHFRGKLGLYHATFEYIIGKI | -0.474 |
| HMDRMINYSPIVAKVPQDDYTTKVYNIPIYSELTVVDKISEPEPLIAPIYRFKYITPEDEEIEFDIPV | -0.39 |
| HMDRMMQPETWGRVYQWITDDPQVPDREEVLTLIKYHYGDFGKLMKLLHRLNEGKAWTYLSEHIFPRM | -0.698 |
| HMDRNEFVSTLRAALTGAVSPAIVEDNVRYYQNYISQEIASGKSEKEVLDGLGDPRLIARTIIDT | 0.14 |
| HMDRNIVYSDFIRSVNQGQVSEVLVQGDNIRGRYLNGKVFQTFAPKDPSLISTLRNKGVRISAEPA | -0.022 |
| HMDRRSTTLQDIYTRIDAEEISEALELIPKLGEIEFEQNRAEIAEAAGVRPAVLDKLRKQAAKQENNKK | -0.216 |
| HMDRSAQVLFLEHARSRLPQRIQWAEELAELLSIGIDSAYRRIRGETALTFNEAVSVSRKYDISLDYLFK | -1.4 |
| HMDRSKREKEQQELMLKVQQIFDDNQQRFGAEKIRTVLAQNGVRVSVKRVSAIMQELNLRSIR | 0.169 |
| HMDRVMPVPEALIGMRFDIAVSRMLGVSRSQAAAYIDRGQVSIAGRGSQRSAQKSEKLVQGDSIEVAIA | 0.186 |
| HMDRWSLLTLTTLAGGTLRFTELKRAIGDISQRMLAQTLRTLEREGYVSRKVYATIPPKVEYRLTALGQSL | ≥ 0.43 |
| HMDRYAVRAEELAAALAQYHRHVGVYPENLEDLIAPTGPRGYRGPYLSELPTNPSTSKPDWGYDPATGRVS | 0.159 |
| HMDSAFVSDIRDAFDEAGVDSYRFFGTHSFKRGGVQLYRLLGVSDQEIKERGHWQTFSAYFAYVQA | -0.303 |
| HMDSESGAIIRRAVAQLAPKFRSTIVLRLIEGYSTEETAQILQLPVGTVLSRLARAKVQLMNLLTPYKEL | -0.0277 |
| HMDSIDIDAETKSLGPNAPQIIKGIKEWGQGLVAKGVWSDQDFEEFKVFAATANGINALNKVRKFY | -0.192 |
| HMDSIDVQQKKLLTDIELGNIEGIKLFLKRHNNTINFLTIKGFHPLVYAVRNNNMEIVNLFLTT | 0.159 |
| HMDSIGTQIRKLREEAEMPLRKLSALLDIDQSTLSKIERDERRANTQMIEQIAKIFKVNKEQLLVA | -1.98 |
| HMDSKPNDLLFVYVSQLIRSLTLNSSKKDSELADELEVSISQIRIWLKKLINEQLIVKESKPVKYRWKG | -0.327 |
| HMDSLARKTVNGAEFYIYPVESAEGFYSLRRKFGVSQEEVIKYNPSAQNGLKSGQVLLIPVT | 0.125 |
